According to patent publication US6693076:

Tests used:
[1] = target: 125I-[Threonine59]IGF-I binding sites in adult rat brain sections (level of the cerebellum and brain stem) (rat); assay: displacement of 0.01 nM 125I-[Thr59]IGF-I from rat brain sections; competitor at .10 mM
[2] = target: 125I-[Threonine59]IGF-I binding sites in adult rat brain sections (level of the cerebellum and brain stem) (rat); assay: displacement of 0.01 nM 125I-[Thr59]IGF-I from rat brain sections; competitor at 1 mM
[3] = target: 125I-[Threonine59]IGF-I binding sites in adult rat brain sections (level of the cerebellum and brain stem) (rat); assay: displacement of 0.01 nM 125I-[Thr59]IGF-I from rat brain sections; competitor at .25 mM
[4] = target: 125I-[Threonine59]IGF-I binding sites in adult rat brain sections (level of the cerebellum and brain stem) (rat); assay: displacement of 0.01 nM 125I-[Thr59]IGF-I from rat brain sections; competitor at .025 mM

| percent max. bound [1] [%] | percent max. bound [2] [%] | percent max. bound [3] [%] | percent max. bound [4] [%] | Binder |
| --- | --- | --- | --- | --- |
| 82 | 76 | – | – | SRVSRRSR [IGF-II(33-40)] |
| – | – | 167 | 132 | ALLETYCATPAKSE [IGF-II(54-67)] |
